The text below walks through data of the RNAGym collection of RNA variant scans (doi:10.1093/molbev/msab373).

B1: Azoarcus group I ribozyme (parent)
chain: GUGCCUUGCGCCGGGAAACCACGCAAGGGAUGGUGUCAAAUUCGGCGAAACCUAAGCGCCCGCCCGGGCGUAUGGCAACGCCGAGCCAAGCUUCGGCGCCUGCGCCGAUGAAGGUGUAGAGACUAGACGGCACCCACCUAAGGCAAACGCUAUGGUGAAGGCAUAGUCCAGGGAGUGGCGAAAGUCACACAAACCGG

The data set covers variants of B1. Nature of the data set: reverse-splicing fitness (ratio to wild type); higher = more active; in vitro selection; Mg2+ level not given. In a few lines: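 An in vitro group I ribozyme library with randomized positions was T7-transcribed and gel-purified. In triplicate, 10 pmol RNA in EPPS pH 7.5 was reacted with 50 pmoles of a 30-nt RNA substrate for 1 h at 37 °C across several added MgCl2 levels (1–48 mM), then stopped with EDTA. Products were reverse transcribed from a substrate-complementary primer, PCR-amplified and sequenced (HiSeq 4000). Fitness is a variant's read proportion after selection over that before, normalised to wild type.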
C82G A111U A145G C169A U176C: the reverse-splicing fitness worked out at 0.0263.

C82G A111U A145G C169A U176A: the reverse-splicing fitness came out at 0.0174.

On to C82G A111U A145G U176G, for which the reverse-splicing fitness worked out at 0.061.

For C82G A111U A145G U176C, the reverse-splicing fitness was 0.244.

Consider C82G A111U A145G U176A, for which the reverse-splicing fitness came to 0.197.

In the case of C82G A111U A145G C150G C169U, the reverse-splicing fitness came out at 0.00972.

Consider C82G A111U A145G C150G C169G, for which the reverse-splicing fitness stood at 0.00715.

With C82G A111U A145G C150G C169A, the reverse-splicing fitness is 0.00977.

For C82G A111U A145C C169U U176G, the reverse-splicing fitness was 0.00474.

For C82G A111U A145C C169U U176C, the reverse-splicing fitness is 0.0119.

As to C82G A111U A145C C169U U176A, the reverse-splicing fitness was 0.014.

Turning to C82G A111U C150U U176G, the reverse-splicing fitness is 0.0348.

As to C82G A111U C150U U176A, the reverse-splicing fitness is 0.0918.

Turning to C82G A111U C150U U176C, the reverse-splicing fitness was 0.131.

Regarding C82G A120C, the reverse-splicing fitness amounted to 0.208.

Take C82G A111U A145G C150A C169A U176C: the reverse-splicing fitness stood at 0.0216.

Turning to C82G A111U A145G C150A C169A U176G, the reverse-splicing fitness amounted to 0.00721.

With C82G A111U A145G C150A C169A U176A, the reverse-splicing fitness was 0.0183.

Turning to C82G A111U A145G C150U C169U U176G, the reverse-splicing fitness worked out at 0.00638.

In the case of C82G A111U A145G C150U C169U U176C, the reverse-splicing fitness came to 0.0146.

Turning to C82G A111U A145G C150U C169U U176A, the reverse-splicing fitness stood at 0.0152.

With C82G A111U A145G C150U C169A U176A, the reverse-splicing fitness came to 0.0163.

As to C82G A111U A145G C150U C169A U176G, the reverse-splicing fitness came to 0.00701.

In the case of C82G A111U A145G C150U C169A U176C, the reverse-splicing fitness amounted to 0.0164.

For the variant C82G A111U A120U C150U C169A, the reverse-splicing fitness was determined as 0.0056.

For C82G A111U A120U C150U C169G, the reverse-splicing fitness was determined as 0.00565.

Consider C82G A111U A120U C150U C169U, for which the reverse-splicing fitness was 0.00485.

C82G A111U C150U C169U U176G: the reverse-splicing fitness came to 0.00694.

On to C82G A111U C150U C169U U176C, for which the reverse-splicing fitness was found to be 0.013.

For C82G A111U C150U C169U U176A, the reverse-splicing fitness was found to be 0.014.

As for C82G A111U A145U C169G, the reverse-splicing fitness was 0.00896.

Turning to C82G A111U A145U C169A, the reverse-splicing fitness stood at 0.00754.

Consider C82G A111U A145U C169U, for which the reverse-splicing fitness was 0.0113.

Take C82G A111U A145G C150A U176A: the reverse-splicing fitness was found to be 0.0322.

As for C82G A111U A145G C150A U176G, the reverse-splicing fitness turned out to be 0.0141.

Take C82G A111U A145G C150A U176C: the reverse-splicing fitness was found to be 0.0447.

In the case of C82G A111U A145U C150U C169G, the reverse-splicing fitness is 0.00884.

As for C82G A111U A145U C150U C169A, the reverse-splicing fitness worked out at 0.00988.

Consider C82G A111U A145U C150U C169U, for which the reverse-splicing fitness amounted to 0.0113.

For the variant C82G A120C A145C C150A C169A U176A, the reverse-splicing fitness was 0.0154.

As for C82G A120C A145C C150A C169A U176G, the reverse-splicing fitness was 0.00522.

Consider C82G A120C A145C C150A C169A U176C, for which the reverse-splicing fitness turned out to be 0.00645.

In the case of C82G A111U A145C C150G C169A, the reverse-splicing fitness was 0.00892.

For the variant C82G A111U A145C C150G C169U, the reverse-splicing fitness worked out at 0.00915.

Take C82G A111U A145C C150G C169G: the reverse-splicing fitness is 0.00784.

Consider C82G A111U C150G C169U U176G, for which the reverse-splicing fitness was 0.00728.

With C82G A111U C150G C169U U176C, the reverse-splicing fitness was 0.0129.

With C82G A111U C150G C169U U176A, the reverse-splicing fitness came to 0.00863.

In the case of C82G A111U C150A C169A U176C, the reverse-splicing fitness came to 0.0206.

As for C82G A111U C150A C169A U176G, the reverse-splicing fitness came to 0.00814.

Turning to C82G A111U C150A C169A U176A, the reverse-splicing fitness came to 0.0193.

Consider C82G A111U A145C C150A C169G U176C, for which the reverse-splicing fitness was determined as 0.0155.

As to C82G A111U A145C C150A C169G U176G, the reverse-splicing fitness came out at 0.00716.

For the variant C82G A111U A145C C150A C169G U176A, the reverse-splicing fitness stood at 0.0227.

C82G A111U A145U C150A C169G U176A: the reverse-splicing fitness came out at 0.014.

Consider C82G A111U A145U C150A C169G U176C, for which the reverse-splicing fitness was 0.0144.

On to C82G A111U A145U C150A C169G U176G, for which the reverse-splicing fitness came to 0.0066.

Consider C82G A111U A120U C150U, for which the reverse-splicing fitness worked out at 0.0256.

For the variant C82G A111U C150A U176G, the reverse-splicing fitness came out at 0.0138.

For C82G A111U C150A U176A, the reverse-splicing fitness turned out to be 0.025.

For the variant C82G A111U C150A U176C, the reverse-splicing fitness was 0.0357.

C82G A111U A145U C150G C169G U176C: the reverse-splicing fitness was 0.00646.

Take C82G A111U A145U C150G C169G U176G: the reverse-splicing fitness was 0.00649.

With C82G A111U A145U C150G C169G U176A, the reverse-splicing fitness worked out at 0.0083.

With C82G A111U A145C C150G U176C, the reverse-splicing fitness was found to be 0.0238.

Turning to C82G A111U A145C C150G U176G, the reverse-splicing fitness came to 0.00504.

Turning to C82G A111U A145C C150G U176A, the reverse-splicing fitness turned out to be 0.0157.

On to C82G A120C A145C C150U C169U, for which the reverse-splicing fitness worked out at 0.0122.

Consider C82G A120C A145C C150U C169G, for which the reverse-splicing fitness worked out at 0.00749.

In the case of C82G A120C A145C C150U C169A, the reverse-splicing fitness worked out at 0.008.

Regarding C82G A111U A145U C150G C169A U176G, the reverse-splicing fitness was 0.00706.

C82G A111U A145U C150G C169A U176C: the reverse-splicing fitness amounted to 0.0124.

For the variant C82G A111U A145U C150G C169A U176A, the reverse-splicing fitness stood at 0.0117.

As to C82G A111U C150U, the reverse-splicing fitness came out at 0.192.

In the case of C82G A111U C150A, the reverse-splicing fitness came out at 0.0323.

As for C82G A111U C150G, the reverse-splicing fitness is 0.0227.

In the case of C82G A111U A120U C150U U176A, the reverse-splicing fitness was found to be 0.00931.

In the case of C82G A111U A120U C150U U176C, the reverse-splicing fitness is 0.0123.

As to C82G A111U A120U C150U U176G, the reverse-splicing fitness worked out at 0.00391.

With C82G A111U C150U C169G U176C, the reverse-splicing fitness came out at 0.0169.

Turning to C82G A111U C150U C169G U176G, the reverse-splicing fitness was determined as 0.00689.

With C82G A111U C150U C169G U176A, the reverse-splicing fitness was found to be 0.0149.

With C82G A120C A145C, the reverse-splicing fitness is 0.201.
